Assay results from paper PMC3936261 (Oncogene, 2013).
Like-named read-outs stand apart in the source and are kept apart here.

How the values were obtained:
Test in all cases: other fluorescence titration
[1] = target: T1, PTEN protein labeled with QSY 35 (UniProt P60484 1-403, QSY 35 (label as for the MKP proteins))
[2] = target: T1, PTEN protein labeled with QSY 35; remark: listed apart in the source
[3] = target: T1, PTEN protein labeled with QSY 35; remark: listed apart in the source

T1 sequence (P60484 whole entry): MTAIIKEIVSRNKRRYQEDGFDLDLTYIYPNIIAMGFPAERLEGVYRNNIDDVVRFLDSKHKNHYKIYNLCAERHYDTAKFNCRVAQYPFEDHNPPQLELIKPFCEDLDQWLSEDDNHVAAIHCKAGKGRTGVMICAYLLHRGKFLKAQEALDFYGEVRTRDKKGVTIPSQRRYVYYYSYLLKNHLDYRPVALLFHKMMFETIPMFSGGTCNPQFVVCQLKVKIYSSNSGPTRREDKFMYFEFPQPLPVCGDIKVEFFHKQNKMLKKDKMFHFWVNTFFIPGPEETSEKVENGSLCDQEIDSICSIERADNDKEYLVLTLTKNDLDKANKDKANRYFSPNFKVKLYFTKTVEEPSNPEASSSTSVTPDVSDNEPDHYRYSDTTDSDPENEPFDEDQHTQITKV

B1: Prdx1 protein labeled with Alexa Fluor 546 (enzyme, UniProt Q06830 1-199, looked up)
chain: MSSGNAKIGHPAPNFKATAVMPDGQFKDISLSDYKGKYVVFFFYPLDFTFVCPTEIIAFSDRAEEFKKLNCQVIGASVDSHFCHLAWVNTPKKQGGLGPMNIPLVSDPKRTIAQDYGVLKADEGISFRGLFIIDDKGILRQITVNDLPVGRSVDETLRLVQAFQFTDKHGEVCPAGWKPGSDTIKPDVQKSKEYFSKQK
modifications: Alexa Fluor 546 on primary amines (succinimidylester of Alexa Fluor 546 carboxylic acid)
Kd [1]: 220 ± 22.5 nM
Kd [2]: 247 nM
Kd [3]: 215 ± 19.5 nM
